Where a chain is given by its changes, count along the chain named. Names and notes keep the numbering of the source.
B1: His-SOUL1-111 (domain or fragment, mouse, UniProt Q9WU63 1-111, looked up)
chain: MAEEPEPDLGVAEGSEDQALEMPSWKAPEDIDPQPGSYEIRHYGPAKWVSTCVESLDWDSAIQTGFTKLNGYIQGKNEKEMKIKLTAPVTSYVEPGSSPFSESTITISLYI
notes: SOUL (HEBP2), murine, residues 1-111; source: E. coli BL21(DE3) with pGroESL, purified (Ni-NTA-agarose, Sephadex G-25)
B2: His-SOUL1-143 (domain or fragment, mouse, UniProt Q9WU63 1-143, looked up)
chain: MAEEPEPDLGVAEGSEDQALEMPSWKAPEDIDPQPGSYEIRHYGPAKWVSTCVESLDWDSAIQTGFTKLNGYIQGKNEKEMKIKLTAPVTSYVEPGSSPFSESTITISLYIPSEQQPDPPRPSESDVFIEDRAEMTVFVRSFD
notes: source: E. coli BL21(DE3) with pGroESL, purified (Ni-NTA-agarose, Sephadex G-25)
B3: His-SOUL mutant (36-111/126-205) without two PRRs (domain or fragment, mouse, UniProt Q9WU63 36-205, looked up)
chain: GSYEIRHYGPAKWVSTCVESLDWDSAIQTGFTKLNGYIQGKNEKEMKIKLTAPVTSYVEPGSSPFSESTITISLYIDVFIEDRAEMTVFVRSFDGFSSGQKNQEQLLTLANILREEGKVFNEKVFYTAGYSSPFQLLDRNNEVWLIQKNEPSVENK
notes: as for B2
B4: His-SOUL^WT (wild-type SOUL fused to His-tag) (natural protein, mouse, UniProt Q9WU63 1-205, looked up)
chain: MAEEPEPDLGVAEGSEDQALEMPSWKAPEDIDPQPGSYEIRHYGPAKWVSTCVESLDWDSAIQTGFTKLNGYIQGKNEKEMKIKLTAPVTSYVEPGSSPFSESTITISLYIPSEQQPDPPRPSESDVFIEDRAEMTVFVRSFDGFSSGQKNQEQLLTLANILREEGKVFNEKVFYTAGYSSPFQLLDRNNEVWLIQKNEPSVENK
notes: Cloned into the Nde I and Sal I sites of pET28a(+); this probably gives an N-terminal His-tag with a thrombin site (surmised); Dimer by gel filtration; also called mSOUL; source: E. coli BL21(DE3) with pGroESL, purified (Ni-NTA-agarose, Sephadex G-25)
B5: GST-ALG-2 W89A (natural protein, mouse, UniProt P12815 1-191, looked up)
chain: MAAYSYRPGPGGGPGPAAGAALPDQSFLWNVFQRVDKDRSGVISDNELQQALSNGTWTPFNPVTVRSIISMFDRENKAGVNFSEFTGVAKYITDWQNVFRTYDRDNSGMIDKNELKQALSGFGYRLSDQFHDILIRKFDRQGRGQIAFDDFIQGCIVLQRLTDIFRRYDTDQDGWIQVSYEQYLSMVFSIV
notes: ALG-2 (PDCD6), murine, 1-191 amino acids with W89A (pocket 3); source: E. coli, purified (as GST-ALG-2)
B6: delta3-23ALG-2^WT (domain or fragment, mouse, UniProt P12815 1-191, looked up)
chain: MADQSFLWNVFQRVDKDRSGVISDNELQQALSNGTWTPFNPVTVRSIISMFDRENKAGVNFSEFTGVWKYITDWQNVFRTYDRDNSGMIDKNELKQALSGFGYRLSDQFHDILIRKFDRQGRGQIAFDDFIQGCIVLQRLTDIFRRYDTDQDGWIQVSYEQYLSMVFSIV
notes: ALG-2 (PDCD6), murine, with deletion of the N-terminal 3-23 amino acids (the hydrophobic 21 residues); the plasmid paragraph calls it 24-191 amino acids, without tag; source: E. coli BL21-CodonPlus(DE3)-(RIPL), purified (Ca2+ precipitation, HiTrap Q, Sephacryl S-200 HR)
B7: GST-ALG-2 F85A (natural protein, mouse, UniProt P12815 1-191, looked up)
chain: B5 chain with F85A, A89W
notes: ALG-2 (PDCD6), murine, 1-191 amino acids with F85A (pocket 3); source: E. coli, purified (as GST-ALG-2)
B8: GST-ALG-2 L52A (natural protein, mouse, UniProt P12815 1-191, looked up)
chain: B5 chain with L52A, A89W
notes: ALG-2 (PDCD6), murine, 1-191 amino acids with L52A (pocket 3); source: E. coli, purified (as GST-ALG-2)
B9: GST-ALG-2^WT (wild-type ALG-2 fused to GST-tag) (natural protein, mouse, UniProt P12815 1-191, looked up)
chain: B5 chain with A89W
notes: ALG-2 (apoptosis-linked gene 2, PDCD6), murine, 1-191 amino acids; Cloned into the BamH I and Sal I sites of pGEX-4T-2; GST is probably N-terminal (surmised); also called apoptosis-linked gene 2 protein; PDCD6; source: E. coli BL21-CodonPlus(DE3)-(RIPL), purified (ammonium sulfate, Glutathione Sepharose, Sephadex G-25)
B10: GST-ALG-2 I92A (natural protein, mouse, UniProt P12815 1-191, looked up)
chain: B5 chain with A89W, I92A
notes: ALG-2 (PDCD6), murine, 1-191 amino acids with I92A (pocket 3); source: E. coli, purified (as GST-ALG-2)
B11: GST-ALG-2^∆GF (natural protein, mouse, UniProt P12815 1-191, looked up)
chain: MAAYSYRPGPGGGPGPAAGAALPDQSFLWNVFQRVDKDRSGVISDNELQQALSNGTWTPFNPVTVRSIISMFDRENKAGVNFSEFTGVWKYITDWQNVFRTYDRDNSGMIDKNELKQALSGYRLSDQFHDILIRKFDRQGRGQIAFDDFIQGCIVLQRLTDIFRRYDTDQDGWIQVSYEQYLSMVFSIV
notes: ALG-2 (PDCD6), murine, natural splice variant with deletion of Gly121 and Phe122; made by PCR-based mutagenesis of the 1-191 construct; also called ALG-2^ΔGF; source: E. coli, purified (as GST-ALG-2)
B12: delta3-23ALG-2^∆GF (domain or fragment, mouse, UniProt P12815 1-191, looked up)
chain: MADQSFLWNVFQRVDKDRSGVISDNELQQALSNGTWTPFNPVTVRSIISMFDRENKAGVNFSEFTGVWKYITDWQNVFRTYDRDNSGMIDKNELKQALSGYRLSDQFHDILIRKFDRQGRGQIAFDDFIQGCIVLQRLTDIFRRYDTDQDGWIQVSYEQYLSMVFSIV
notes: ALG-2 (PDCD6), murine, deletion of the N-terminal 3-23 amino acids and of Gly121 and Phe122 (splice variant); numbers count on full-length ALG-2^WT; N-terminus as for m3; source: E. coli, purified (as delta3-23ALG-2)

Tests used:
[1] = molecular target: B9; test: pull-down; GST-pulldown: purified His-SOUL (5 µM) and GST-ALG-2 (5 µM) with Glutathione Sepharose 4B in buffer B (100 mM Tris-HCl pH 7.5, 100 mM NaCl, 10% glycerol) with 20 µM CaCl2 (or various amounts of Ca2+), 30 min at 4 °C; SDS-PAGE, Coomassie; conditions: both partners purified
delta3-23ALG-2^WT [2] = molecular target: B6; test: ITC; His-SOUL (130 or 260 µM) injected into delta3-23ALG-2 (5 or 10 µM); 25 °C, pH 7.5, buffer C (25 mM HEPES, 150 mM NaCl, 10% glycerol) with 15 µM CaCl2 and 0.25% Tween 20; one-set-of-sites model (sequential-binding-sites model also tried); conditions: both partners purified
delta3-23ALG-2^∆GF = molecular target: B12; test: as above; conditions: both partners purified
delta3-23ALG-2^WT [3] = molecular target: B6; test: as above; conditions: both partners purified; remark: listed apart in the source
[4] = molecular target: the molecule itself; test: SEC; Sephacryl-S-200 HR (150 mL), 1 mL of each protein sample (5 µM), buffer B with 20 µM CaCl2; fractions by SDS-PAGE
delta3-23ALG-2^WT [5] = molecular target: B6; test: as above; conditions: both partners purified
[6] = molecular target: B4; test: pull-down; GST-pulldown: purified His-SOUL (5 µM) and GST-ALG-2 (5 µM) with Glutathione Sepharose 4B in buffer B (100 mM Tris-HCl pH 7.5, 100 mM NaCl, 10% glycerol) with 20 µM CaCl2 (or various amounts of Ca2+), 30 min at 4 °C; SDS-PAGE, Coomassie; conditions: both partners purified
[7] = molecular target: B4; test: ITC; His-SOUL (130 or 260 µM) injected into delta3-23ALG-2 (5 or 10 µM); 25 °C, pH 7.5, buffer C (25 mM HEPES, 150 mM NaCl, 10% glycerol) with 15 µM CaCl2 and 0.25% Tween 20; one-set-of-sites model (sequential-binding-sites model also tried); conditions: both partners purified

Q: Does B1 bind [1]?
A: Result: binds

Q: B2 was tested. Which Kd (delta3-23ALG-2^WT [2]) did it give?
A: The Kd was 1300 nM.

Q: And the “stoichiometry N” value (delta3-23ALG-2^WT [2])?
A: The value was 1.

Q: Does B3 bind [1]?
A: Result: binds

Q: Which results are given for B4?
A: Kd of the first binding (sequential-binding-sites model) (delta3-23ALG-2^WT [2]): 37 nM; Kd of the second binding (sequential-binding-sites model) (delta3-23ALG-2^WT [2]): 40 nM; dH (delta3-23ALG-2^∆GF): -19.8 ± 2 kcal/mol; stoichiometry N (delta3-23ALG-2^∆GF): 1 ± 0.07; dH (delta3-23ALG-2^WT [3]): -17.9 ± 0.7 kcal/mol; stoichiometry N (delta3-23ALG-2^WT [3]): 1.16 ± 0.02; stoichiometry N [4]: 2; stoichiometry N (delta3-23ALG-2^WT [5]): 1

Q: Does B5 bind [6]?
A: Result: binds

Q: B6 was tested. Which Kd [7] did it give?
A: The Kd was 32.4 ± 6.6 nM.

Q: Does B7 bind [6]?
A: Result: binds

Q: Does B8 bind [6]?
A: Result: binds

Q: Does B9 bind [6]?
A: Result: binds

Q: Does B10 bind [6]?
A: Result: binds

Q: Does B11 bind [6]?
A: Result: binds

Q: With B12 as the binder, how does the Kd [7] read?
A: The Kd was 62 ± 13.7 nM.

Reference: PMC6321638, “Thermodynamic Characterization of the Ca^2+-Dependent Interaction Between SOUL and ALG-2” (International Journal of Molecular Sciences, 2018)
